Source: patent publication US20240287196A1 (published 2024)
Like-named read-outs stand apart in the source and are kept apart here.

T1: ALK7-Fc comprising protein (Homo sapiens (Human), UniProt Q8NER5 21-113)
T1 construct: not shown: The Fc part and any linker of the fusion; The construct's exact ALK7 limits are not seen either
T1 sequence: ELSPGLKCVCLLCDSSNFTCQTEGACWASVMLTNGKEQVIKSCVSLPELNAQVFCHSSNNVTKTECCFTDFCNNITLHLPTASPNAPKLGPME

T2: human ALK7-Fc comprising protein (human, UniProt Q8NER5 22-113)
T2 construct: also called hALK7-Fc; not shown: Fc part and any linker
T2 sequence: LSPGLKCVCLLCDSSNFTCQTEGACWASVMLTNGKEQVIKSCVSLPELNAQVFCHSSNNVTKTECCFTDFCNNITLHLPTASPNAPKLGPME

T3: ALK7 on differentiated 3T3-L1 adipocytes (UniProt Q8K348 26-493, limits assumed)
T3 sequence (looked up): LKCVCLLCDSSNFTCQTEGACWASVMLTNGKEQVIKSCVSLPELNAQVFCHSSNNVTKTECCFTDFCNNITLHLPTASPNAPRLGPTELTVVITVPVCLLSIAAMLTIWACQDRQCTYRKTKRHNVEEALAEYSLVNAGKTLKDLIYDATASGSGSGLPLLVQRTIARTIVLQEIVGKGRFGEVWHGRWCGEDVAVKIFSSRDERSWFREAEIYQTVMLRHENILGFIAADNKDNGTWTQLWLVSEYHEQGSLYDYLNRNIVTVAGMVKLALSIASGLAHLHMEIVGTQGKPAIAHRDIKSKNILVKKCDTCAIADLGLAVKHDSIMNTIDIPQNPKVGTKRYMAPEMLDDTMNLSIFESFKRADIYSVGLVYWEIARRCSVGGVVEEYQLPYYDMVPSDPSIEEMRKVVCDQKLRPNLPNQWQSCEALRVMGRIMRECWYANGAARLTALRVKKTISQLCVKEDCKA

T4: rat Alk7-Fc comprising protein (rat, UniProt P70539 26-113)
T4 construct: not shown: Fc part and any linker
T4 sequence: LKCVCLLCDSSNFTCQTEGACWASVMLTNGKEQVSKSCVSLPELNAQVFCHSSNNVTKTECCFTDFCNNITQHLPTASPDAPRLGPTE


How the values were obtained:
[1] = molecular target: T1, ALK7-Fc comprising protein; experiment: SPR (Biacore T100/T200), 25 °C; antibody captured on FAB chip, ALK7-Fc comprising protein as analyte; 1:1 model
Experimental: (§1) Experiments were performed using a Biacore T100/T200 biosensor (Biacore/GE Healthcare) at 25 and 37° C. ALK7 antibodies were captured on custom made FAB chip. A concentration series of ALK7-Fc comprisingprotein was injected over the flow cells at a flow rate of […]. To obtain kinetic rate constants the corrected data were fit to a 1:1 interaction model using BiaEvaluation software (GE Healthcare). The equilibrium binding constant KD was determined by the ratio of binding rate constants kd/kₐ.

[2] = molecular target: T2, human ALK7-Fc comprising protein; experiment: SPR (Biacore T100/T200); antibody captured on FAB chip, ALK7-Fc comprising protein as analyte; 1:1 model
[3] = molecular target: T3, ALK7 on differentiated 3T3-L1 adipocytes; experiment: cell-based or functional assay
[4] = molecular target: T2, human ALK7-Fc comprising protein; experiment: SPR (Biacore T100/T200); antibody captured on FAB chip, ALK7-Fc comprising protein as analyte; 1:1 model; remark: listed apart in the source
Experimental: as §1, with “comprising protein” for “comprisingprotein”, “kd/ka.” for “kd/kₐ.”

[5] = molecular target: T4, rat Alk7-Fc comprising protein; experiment: as above
Experimental: as §1, with “comprising protein” for “comprisingprotein”, “kd/ka.” for “kd/kₐ.”

| Kd [1] | koff [1] | kon [1] | Binder | also measured |
| --- | --- | --- | --- | --- |
| 0.33 nM | 1.27e-05 s⁻¹ | 38300 M⁻¹ s⁻¹ | C03 (antibody, human IgG1, kappa, V domains shown, also called mAb C03; antibody C03) VH: QLQLQESGPGLVKPSETLSLTCTVSGGSISSSAYYWAWIRQPPGKGLEWIGSIYLSGSTTYNPSLKSRVTISVDTSKNQFSLKLSSVTAADTAVYYCARDGRYQSRSPDYYYGMDVWGQGTTVTVSS VL: EIVLTQSPGTLSLSPGERATLSCKASQSVSSSYLAWYQQKPGQAPRLLIYGAFSRANGIPDRFSGSGSGTDFTLTISRLEPEDFAVYYCQQLVSYPFTFGGGTKVEIKR | – |
| 5.33 nM | 0.000126 s⁻¹ | 23600 M⁻¹ s⁻¹ | J02 (antibody, V domains shown, also called mAb J02; antibody J02) VH: EVQLLESGGGLVQPGGSLRLSCAASGFTFSVYAMSWVRQAPGKGLEWVSAISGSGDSTVYADSVKGRFTISRDNSKNTLYLQMNSLRAEDTAVYYCAKPSYQPIYWGQGTLVTVSS VL: DIQMTQSPSSVSASVGDRVTITCRASQGISSWLAWYQQKPGKAPKLLIYAASSLQSGVPSRFSGSGSGTDFTLTISSLQPEDFATYYCQQAASYPLTFGGGTKVEIK | – |

Second part, the binder before the results:

| Binder | Kd [1] | koff [1] | kon [1] | also measured |
| --- | --- | --- | --- | --- |
| G04 (antibody, V domains shown, also called antibody G04) VH: QVQLVQSGAEVKKPGSSVKVSCKASGGTFSSYAISWVRQAPGQGLEWMGGIIPIFGTASYAQKFQGRVTITADESTSTAYMELSSLRSEDTAVYYCARTPYYDSSGYLDVWGQGTMVTVSS VL: DIQMTQSPSSLSASVGDRVTITCQASQDISNYLNWYQQKPGKAPKLLIYDASNLATGVPSRFSGSGSGTDFTFTISSLQPEDIATYYCQQSLDLPPTFGGGTKVEIK | – | – | – | Kd [2]: 247 nM; koff [2]: 0.0222 s⁻¹; kon [2]: 89600 M⁻¹ s⁻¹; Increase in lipolysis activity (%) [3]: 45.8% |
| G05 (antibody, human IgG1, kappa, V domains shown, also called mAb G05; antibody G05) VH: QVQLVQSGAEVKKPGSSVKVSCKASGGTFSGQAISWVRQAPGQGLEWMGGIIPSFGTARYAQKFQGRVTITADESTSTAYMELSSLRSEDTAVYYCARTPYYDSSGYLDVWGQGTMVTVSS VL: DIQMTQSPSSLSASVGDRVTITCQASHDIDNYLNWYQQKPGKAPKLLIYYASNLKTGVPSRFSGSGSGTDFTFTISSLQPEDIATYYCQQSRASPPTFGGGTKVEIKR | 0.87 nM | 2.59e-05 s⁻¹ | 29900 M⁻¹ s⁻¹ | – |
| L01 (antibody, V domains shown, also called antibody L01) VH: QVQLVQSGAEVKKPGSSVKVSCKASGGTFSSYAISWVRQAPGQGLEWMGSIIPIFGTANYAQKFQGRVTITADESTSTAYMELSSLRSEDTAVYYCARDPVGARYEVFDYWGQGTLVTVSS VL: EIVMTQSPATLSVSPGERATLSCRASQSVSSNLAWYQQKPGQAPRLLIYSASTRATGIPARFSGSGSGTEFTLTISSLQSEDFAVYYCQQANTFPLTFGGGTKVEIK | – | – | – | Kd [4]: 15.1 nM; kon [4]: 24300 M⁻¹ s⁻¹; Kd [5]: 22.9 nM; koff [5]: 0.000271 s⁻¹; kon [5]: 11800 M⁻¹ s⁻¹ |
| L02 (antibody, V domains shown, also called mAb L02; antibody L02) VH: QVQLVQSGAEVKKPGASVKVSCKASGYTFAGYNMHWVRQAPGQGLEWVGIINPNSGWTNYAQKFQGRVTMTRDTSVSAAYMELSRLRSDDTAVYYCARDPVGARYEVFDYWGQGTLVTVSS VL: EIVMTQSPATLSVSPGERATLSCRASQSVSSALAWYQQKPGQAPRLLIYSAFTRASGIPARFSGSGSGTEFTLTISSLQSEDFAVYYCQQAWAFPLTFGGGTKVEIK | 0.44 nM | 1.21e-05 s⁻¹ | 27400 M⁻¹ s⁻¹ | – |
| K01 (antibody, V domains shown, also called antibody K01) VH: not shown VL: DIQMTQSPSSLSASVGDRVTITCRASQSISSYLNWYQQKPGKAPKLLIYGASSLQSGVPSRFSGSGSGTDFTLTISSLQPEDFATYYCQQAYSFPWTFGGGIKVEIK | – | – | – | Kd [4]: 201 nM; koff [4]: 0.00916 s⁻¹; kon [4]: 45600 M⁻¹ s⁻¹; Kd [5]: 8.14 nM; koff [5]: 0.000139 s⁻¹; kon [5]: 17100 M⁻¹ s⁻¹ |
| K02 (antibody, V domains shown, also called mAb K02; antibody K02) VH: QVQLVQSGAEVKKPGSSVKVSCKASGGTFSSSAIGWVRQAPGQGLEWMGGIWPIFGTALYAQKFQGRVTITADESTSTAYMELSSLRSEDTAVYYCARDPREYIHVFDIWGQGTMVTVSS VL: DIQMTQSPSSLSASVGDRVTITCRASQSISSYLNWYQQKPGKAPKLLIYGASSLQSGVPSRFSGSGSGTDFTLTISSLQPEDFATYYCQQAYSFPWTFGGGIKVEIK | 12.4 nM | 0.000291 s⁻¹ | 23500 M⁻¹ s⁻¹ | – |
